We go through six molecules from patent US20200317768A1 (published 2020).

Test [1] deals with T1, human FcγRIIaR extracellular domain, C-terminal His-tag (human, UniProt P12318 34-217).
T1 construct: also called human FcγRIIa (type R); FcgRIIaR; not shown: His-tag added to the C-terminus
T1 chain: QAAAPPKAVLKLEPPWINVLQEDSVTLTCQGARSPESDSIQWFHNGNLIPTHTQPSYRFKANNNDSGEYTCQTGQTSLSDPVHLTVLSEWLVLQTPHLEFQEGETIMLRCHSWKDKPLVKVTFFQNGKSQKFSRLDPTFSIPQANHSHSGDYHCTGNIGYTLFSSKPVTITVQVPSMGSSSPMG
The test is described as follows: SPR; KD of SG1 divided by KD of variant.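 Also: relative to parent M103205H795-SG1 carrying the SG1 human heavy chain constant region.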 On the procedure:
(§1) The kinetic analysis of interactions between these antibodies and FcγR was carried out using BIACORE® T200 or BIACORE® 4000 (GE Healthcare). HBS-EP+ (GE Healthcare) was used as the running buffer, and the measurement temperature was set to 25° C. A chip produced by immobilizing Protein A. Protein A/G or mouse anti-human IgG kappa light chain (BD Biosciences) onto a Series S Sensor Chip CM4 or CM5 (GE Healthcare) by the amine-coupling method was used. […] After the measurement, the antibody captured on the chip was washed off by allowing reaction with 10 mM glycine-HCl, pH1.5 and 25 mM NaOH so that the chip was regenerated and used repeatedly. The sensorgrams obtained as measurement results were analyzed by the 1:1 Langmuir binding model using the BIACORE® Evaluation Software to calculate the binding rate constant ka (L/mol/s) and dissociation rate constant kd (l/s), and the dissociation constant KD (mol/L) was calculated from these values. […] Regarding such interactions, KD values were calculated using the following 1:1 binding model described in BIACORE® T100 Software Handbook BR1006-48 Edition AE.
(§2) Human FcγRIIb-enhanced Fc variants with anti-myostatin variable region were constructed and their affinity for human FcγRs was evaluated. […] In addition, substitutions (Q311R/D413K or […]) were also introduced. The variants were expressed using M103202L1045-SK1 as light chain and their affinity to human FcγRs was analyzed according to the method shown in Example 34.

For test [2], the target named is T2, human FcγRIIb extracellular domain, C-terminal His-tag (human, UniProt P31994 43-217).
T2 construct: also called FcgRIIb; not shown: His-tag added to the C-terminus
T2 sequence: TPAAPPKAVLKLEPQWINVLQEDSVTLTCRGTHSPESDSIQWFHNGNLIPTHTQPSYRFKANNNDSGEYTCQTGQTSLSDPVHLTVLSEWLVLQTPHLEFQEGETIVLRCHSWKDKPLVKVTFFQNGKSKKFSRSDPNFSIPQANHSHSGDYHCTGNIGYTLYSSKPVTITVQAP
The test is described as follows: SPR; KD of SG1 divided by KD of variant.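 Also: relative to parent M103205H795-SG1 carrying the SG1 human heavy chain constant region.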 On the procedure: as §1, §2

The target of test [3] is T3, human FcγRIIIaV extracellular domain, C-terminal His-tag (human, UniProt P08637 17-208).
T3 construct: also called FcgRIIIaV; not shown: His-tag added to the C-terminus
T3 sequence (P08637 17-208 F176V): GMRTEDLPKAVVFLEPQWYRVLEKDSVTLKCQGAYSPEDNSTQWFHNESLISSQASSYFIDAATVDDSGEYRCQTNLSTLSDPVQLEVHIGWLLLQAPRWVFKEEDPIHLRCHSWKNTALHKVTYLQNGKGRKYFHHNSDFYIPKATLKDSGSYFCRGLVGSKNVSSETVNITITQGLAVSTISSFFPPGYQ
The test is described as follows: SPR; KD of SG1 divided by KD of variant.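 Also: relative to parent M103205H795-SG1 carrying the SG1 human heavy chain constant region.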 As to the method:
as §1, §2

Test [4] addresses T4, human FcγRIIaH extracellular domain, C-terminal His-tag (human, UniProt P12318 34-217).
T4 construct: also called human FcγRIIa (type H); FcgRIIaH; not shown: His-tag added to the C-terminus
T4 sequence: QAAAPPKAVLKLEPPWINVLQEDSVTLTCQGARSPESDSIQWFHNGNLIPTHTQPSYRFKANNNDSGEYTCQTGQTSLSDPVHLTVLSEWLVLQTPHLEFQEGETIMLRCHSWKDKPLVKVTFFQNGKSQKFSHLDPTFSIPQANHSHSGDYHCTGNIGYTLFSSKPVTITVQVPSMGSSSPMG
Briefly: SPR; KD of SG1 divided by KD of variant.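 Also: relative to parent M103205H795-SG1 carrying the SG1 human heavy chain constant region.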 On the procedure:
as §1, §2

Test [5] concerns the target T1, human FcγRIIaR extracellular domain, …. The test is described as follows: SPR (BIACORE), antibody captured, soluble FcgR as analyte, 25C. On the procedure: as §1, §2
The target of test [6] is T2, human FcγRIIb extracellular domain, …. The test is described as above. On the procedure:
as §1, §2

Test [7] deals with T3, human FcγRIIIaV extracellular domain, …. The test is described as above. On the procedure:
as §1, §2

Test [8] deals with T4, human FcγRIIaH extracellular domain, …. Described as above. As to the method: as §1, §2

B1: MS1032LO19-SG1 (MS103240H795-SG1/M103202L1045-SK1) (antibody, human IgG1, kappa)
heavy: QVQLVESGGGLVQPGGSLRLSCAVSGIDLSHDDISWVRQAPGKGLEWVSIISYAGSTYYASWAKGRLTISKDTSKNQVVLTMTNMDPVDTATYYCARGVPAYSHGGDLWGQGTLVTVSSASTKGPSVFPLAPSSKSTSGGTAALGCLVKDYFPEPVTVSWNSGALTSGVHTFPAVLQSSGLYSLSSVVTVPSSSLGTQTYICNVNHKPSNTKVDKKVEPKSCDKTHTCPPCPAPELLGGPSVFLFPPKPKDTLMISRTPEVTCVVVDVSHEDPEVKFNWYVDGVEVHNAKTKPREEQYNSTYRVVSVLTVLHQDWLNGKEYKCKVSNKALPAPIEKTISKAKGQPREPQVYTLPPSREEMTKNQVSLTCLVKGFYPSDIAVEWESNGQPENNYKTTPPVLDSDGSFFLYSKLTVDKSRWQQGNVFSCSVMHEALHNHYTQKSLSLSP
light: DIVMTQSPATLSLSPGERATLSCTTSQSVYHENWLSWFQQKPGQPPKLLIYWASTLAYGVPSRFSGSGSGTDFTLTISSLQPEDAATYYCAGGYGGGRYAFGQGTKVEIKRTVAAPSVFIFPPSDEQLKSGTASVVCLLNNFYPREAKVQWKVDNALQSGNSQESVTEQDSKDSTYSLSSTLTLSKADYEKHKVYACEVTHQGLSSPVTKSFNRGEC
B1: the “KD fold (SG1 = 1)” value in test [1], in test [2], in test [3] and in test [4] was 1 fold throughout. Besides, the Kd came out at 1.1 µM in test [5], 0.58 µM in test [6], 0.81 µM in test [7] and 0.75 µM in test [8].

B2: MS103240H795-MY009/M103202L1045-SK1 (antibody, human IgG1, kappa)
heavy: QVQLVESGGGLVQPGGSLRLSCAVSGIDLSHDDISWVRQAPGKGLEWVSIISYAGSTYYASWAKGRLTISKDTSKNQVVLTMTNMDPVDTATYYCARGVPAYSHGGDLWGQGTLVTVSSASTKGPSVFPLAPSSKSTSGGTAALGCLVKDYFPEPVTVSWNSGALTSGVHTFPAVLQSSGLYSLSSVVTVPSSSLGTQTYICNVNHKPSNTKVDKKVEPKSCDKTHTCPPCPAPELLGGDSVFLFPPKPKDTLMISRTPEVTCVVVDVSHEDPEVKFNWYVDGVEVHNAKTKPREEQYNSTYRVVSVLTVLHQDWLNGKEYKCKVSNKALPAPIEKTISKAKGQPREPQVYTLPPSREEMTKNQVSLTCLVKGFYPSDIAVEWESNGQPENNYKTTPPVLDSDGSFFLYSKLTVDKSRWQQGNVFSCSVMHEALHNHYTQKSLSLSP
light: DIVMTQSPATLSLSPGERATLSCTTSQSVYHENWLSWFQQKPGQPPKLLIYWASTLAYGVPSRFSGSGSGTDFTLTISSLQPEDAATYYCAGGYGGGRYAFGQGTKVEIKRTVAAPSVFIFPPSDEQLKSGTASVVCLLNNFYPREAKVQWKVDNALQSGNSQESVTEQDSKDSTYSLSSTLTLSKADYEKHKVYACEVTHQGLSSPVTKSFNRGEC
notes: CH = SG1 with P238D (EU numbering)
In the case of B2, the “KD fold (SG1 = 1)” value in test [1] turned out to be 0.05 fold; in test [2], 4.5 fold; in test [3] it was 0.004 fold; in test [4] it was 0.01 fold. The Kd stood at 23 µM in test [5], 1.3 µM in test [6], 220 µM in test [7] and 73 µM in test [8].

B3: MS103240H795-TT08/M103202L1045-SK1 (antibody, human IgG1, kappa)
heavy: QVQLVESGGGLVQPGGSLRLSCAVSGIDLSHDDISWVRQAPGKGLEWVSIISYAGSTYYASWAKGRLTISKDTSKNQVVLTMTNMDPVDTATYYCARGVPAYSHGGDLWGQGTLVTVSSASTKGPSVFPLAPSSKSTSGGTAALGCLVKDYFPEPVTVSWNSGALTSGVHTFPAVLQSSGLYSLSSVVTVPSSSLGTQTYICNVNHKPSNTKVDKKVEPKSCDKTHTCPPCPAPELLGGDSVFLFPPKPKDVLMISRTPEVTCVVVDVSHEDPEVKFNWYVDGVEVHNAKTKPREEQYNSTYRVVSVLPVLHQDWLNGKEYKCKVSNKALPKPIEKTISKAKGQPREPQVYTLPPSREEMTKNQVSLTCLVKGFYPSDIAVEWESNGQPENNYKTTPPVLDSDGSFFLYSKLTVDKSRWQQGNVFSCSVMHEALHNHYTQKSLSLSP
light: DIVMTQSPATLSLSPGERATLSCTTSQSVYHENWLSWFQQKPGQPPKLLIYWASTLAYGVPSRFSGSGSGTDFTLTISSLQPEDAATYYCAGGYGGGRYAFGQGTKVEIKRTVAAPSVFIFPPSDEQLKSGTASVVCLLNNFYPREAKVQWKVDNALQSGNSQESVTEQDSKDSTYSLSSTLTLSKADYEKHKVYACEVTHQGLSSPVTKSFNRGEC
notes: CH = SG1 with P238D/T250V/T307P/A330K (EU numbering)
Regarding B3, the “KD fold (SG1 = 1)” value in test [1] was 0.07 fold; in test [2], 8.5 fold; in test [3], 0.008 fold; in test [4] it was 0.014 fold. The Kd is 16 µM in test [5], 0.68 µM in test [6], 96 µM in test [7] and 55 µM in test [8].

B4: MS103240H795-TT09/M103202L1045-SK1 (antibody, human IgG1, kappa)
heavy: QVQLVESGGGLVQPGGSLRLSCAVSGIDLSHDDISWVRQAPGKGLEWVSIISYAGSTYYASWAKGRLTISKDTSKNQVVLTMTNMDPVDTATYYCARGVPAYSHGGDLWGQGTLVTVSSASTKGPSVFPLAPSSKSTSGGTAALGCLVKDYFPEPVTVSWNSGALTSGVHTFPAVLQSSGLYSLSSVVTVPSSSLGTQTYICNVNHKPSNTKVDKKVEPKSCDKTHTCPPCPAPELLGGDSVFLFPPKPKDVLMISRTPEVTCVVIDVSHEDPEVKFNWYVDGVEVHNAKTKPREEQYNSTYRVVSVLPVLHQDWLNGKEYKCKVSNKALPKPIEKTISKAKGQPREPQVYTLPPSREEMTKNQVSLTCLVKGFYPSDIAVEWESNGQPENNYKTTPPVLDSDGSFFLYSKLTVDKSRWQQGNVFSCSVMHEALHNHYTQKSLSLSP
light: DIVMTQSPATLSLSPGERATLSCTTSQSVYHENWLSWFQQKPGQPPKLLIYWASTLAYGVPSRFSGSGSGTDFTLTISSLQPEDAATYYCAGGYGGGRYAFGQGTKVEIKRTVAAPSVFIFPPSDEQLKSGTASVVCLLNNFYPREAKVQWKVDNALQSGNSQESVTEQDSKDSTYSLSSTLTLSKADYEKHKVYACEVTHQGLSSPVTKSFNRGEC
notes: CH = SG1 with P238D/T250V/V264I/T307P/A330K (EU numbering)
Consider B4, for which the “KD fold (SG1 = 1)” value in test [1] was determined as 0.08 fold; in test [2] it was 20 fold; in test [3] it was 0.005 fold; in test [4] it was 0.017 fold. For the same molecule, the Kd in test [5] was 14 µM; in test [6] it was 0.29 µM; in test [7], 170 µM; in test [8], 44 µM.

B5: MS103240H795-TT10/M103202L1045-SK1 (antibody, human IgG1, kappa)
heavy: QVQLVESGGGLVQPGGSLRLSCAVSGIDLSHDDISWVRQAPGKGLEWVSIISYAGSTYYASWAKGRLTISKDTSKNQVVLTMTNMDPVDTATYYCARGVPAYSHGGDLWGQGTLVTVSSASTKGPSVFPLAPSSKSTSGGTAALGCLVKDYFPEPVTVSWNSGALTSGVHTFPAVLQSSGLYSLSSVVTVPSSSLGTQTYICNVNHKPSNTKVDKKVEPKSCDKTHTCPPCPAPELLGGDSVFLFPPKPKDVLMISRTPEVTCVVVDVAHEDPEVKFNWYVDGVEVHNAKTKPREEQYNSTYRVVSVLPVLHQDWLNGKEYKCKVSNKALPKPIEKTISKAKGQPREPQVYTLPPSREEMTKNQVSLTCLVKGFYPSDIAVEWESNGQPENNYKTTPPVLDSDGSFFLYSKLTVDKSRWQQGNVFSCSVMHEALHNHYTQKSLSLSP
light: DIVMTQSPATLSLSPGERATLSCTTSQSVYHENWLSWFQQKPGQPPKLLIYWASTLAYGVPSRFSGSGSGTDFTLTISSLQPEDAATYYCAGGYGGGRYAFGQGTKVEIKRTVAAPSVFIFPPSDEQLKSGTASVVCLLNNFYPREAKVQWKVDNALQSGNSQESVTEQDSKDSTYSLSSTLTLSKADYEKHKVYACEVTHQGLSSPVTKSFNRGEC
notes: CH = SG1 with P238D/T250V/S267A/T307P/A330K (EU numbering)
B5: the “KD fold (SG1 = 1)” value is 0.13 fold in test [1], 9.2 fold in test [2], 0.001 fold in test [3] and 0.013 fold in test [4]. For the same molecule, the Kd in test [5] turned out to be 8.7 µM; in test [6] it was 0.63 µM; in test [7] it was 790 µM; in test [8], 56 µM.

B6: MS103240H795-MY214/M103202L1045-SK1 (antibody, human IgG1, kappa)
heavy: QVQLVESGGGLVQPGGSLRLSCAVSGIDLSHDDISWVRQAPGKGLEWVSIISYAGSTYYASWAKGRLTISKDTSKNQVVLTMTNMDPVDTATYYCARGVPAYSHGGDLWGQGTLVTVSSASTKGPSVFPLAPSSKSTSGGTAALGCLVKDYFPEPVTVSWNSGALTSGVHTFPAVLQSSGLYSLSSVVTVPSSSLGTQTYICNVNHKPSNTKVDKKVEPKSCDKTHTCPPCPAPELLGGDSVFLFPPKPKDVLMISRTPEVTCVVVDVSHEDPEVKFNWYVDGVEVHNAKTKPREEQYNSTYRVVSVLPVLHQDWLNGKEYKCKVSNKALPAPIEKTISKAKGQPREPQVYTLPPSREEMTKNQVSLTCLVKGFYPSDIAVEWESNGQPENNYKTTPPVLDSDGSFFLYSKLTVDKSRWQQGNVFSCSVMHEALHNHYTQKSLSLSP
light: DIVMTQSPATLSLSPGERATLSCTTSQSVYHENWLSWFQQKPGQPPKLLIYWASTLAYGVPSRFSGSGSGTDFTLTISSLQPEDAATYYCAGGYGGGRYAFGQGTKVEIKRTVAAPSVFIFPPSDEQLKSGTASVVCLLNNFYPREAKVQWKVDNALQSGNSQESVTEQDSKDSTYSLSSTLTLSKADYEKHKVYACEVTHQGLSSPVTKSFNRGEC
notes: CH = SG1 with P238D/T250V/T307P (EU numbering)
As for B6, the “KD fold (SG1 = 1)” value was 0.05 fold in test [1], 5.8 fold in test [2], 0.005 fold in test [3] and 0.023 fold in test [4]. Further, the dissociation constant (Kd) was 21 µM in test [5], 1 µM in test [6], 150 µM in test [7] and 32 µM in test [8].
